Measured values taken from the nanobody polyreactivity screen of Harvey et al. (2022).

Test: yeast display, Sf9 membrane polyspecificity reagent, FACS + sequencing; frameworks hold sequencing errors
Outline: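 Using colony PCR, genes from sorted yeast display clones were amplified, then sequenced on MiSeq at 2 × 250 and filtered by CDR length. The clones had been stained with 10% biotinylated, detergent-solubilized Sf9 membrane reagent for 1 hour at 4 °C and sorted by FACS into low and high (top ~1%) gates on anti-HA and streptavidin fluorescence. Polyreactivity labels come from the gate of origin.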

Sequence	polyreactivity (PSR sort gate)
QVQLVESGGGLVQAGGSLRLSCAASGSTFYSNAMGWYRQAPGKERELVASIRFSGVITTYADSVKGRFTISRDNAKNTVYLQMNSLKPEDTAVYYWAAGYLSTTAYDYWGQGTQVTVSS	low polyreactivity
QVQLVESGGGLVQAGGSLRLSCAASGSTFYSNVMGWYTQATGKEREFVAGISGSGGSTYYADSVKGRFTISRDNAKNTVYLQMNSLKPDDTAVYYCAKYRYSRYFRYDYWGQGTQVTVSS	high polyreactivity
QVQLVESGGGLVQAGGSLRLSCAASGSTFYSYAMGWYRQAPGKERELVAAIDSGGSTYYADTVKGRFTISRDNAKTTVYLQKNSLKPEDTAVYYCAVRVTSYYRTKDYWGQGTQVTVSS	low polyreactivity
QVQLVESGGGLVQAGGSLRLSCAASGSTFYSYAMGWYRQAPGKERELVAAIDWSGDNTNYADSVKGRFTISRDNAKNTVYLQMNSLKPEDTAVYYCAAVYSYYRLYAYPAYYYWGQGTQVTVSS	low polyreactivity
QVQLVESGGGLVQAGGSLRLSCAASGSTFYSYAMGWYRQAPGKERELVAAITKGGGSTYYADSVKGRFTISRDNAKNTVYLQMNSLIPEDTAVYYCAAPGLYWYYTRSVYDYWGQGTQVTVSS	high polyreactivity
QVQLVESGGGLVQAGGSLRLSCAASGSTFYSYAMGWYRQAPGKERELVAAITSGGSTNYADSVKGRFTISRDNAKNTVYLQMNSLKPEDTAVYYCAAVVSTVDGMEYWGQGTQVTVSS	low polyreactivity
QVQLVESGGGLVQAGGSLRLSCAASGSTFYTNAMGWDRPAPGKEREVVAAISWSGSSTYADSVKGRFTISRDNAKNTVYLQMNSLKPEDTAVYYCAADWFKLRTDYYWGQGTQVTVSS	low polyreactivity
QVQLVESGGGLVQAGGSLRLSCAASGSTFYTNAMGWYRQAPGKERELVAAISASVGSTYYADSVKGRFTISRDNAKNTVYLQMNSLKPEDTAVYYCAADVWASRRYDYWGQGTQVTVSS	low polyreactivity
QVQLVESGGGLVQAGGSLRLSCAASGSTFYTNPMGWYRQAPGKERELVAAISGSGGSTYYADSVKGRFTISRDNAKNTVYLQMNSLKPEYTAVYYCAARSRYYDTRFDYWGQGTQVTVSS	low polyreactivity
QVQLVESGGGLVQAGGSLRLSCAASGSTFYTYTAMGWYRQAPGKERELVAAITWRGGSTYYADSVKGRFTISRDNAKNTVYLQLNSLKPEDTAVYYCNTVHYYRDYDYWGQGTQVTVSS	high polyreactivity
QVQLVESGGGLVQAGGSLRLSCAASGSTFYVNAMGWYRQAPGKERELVAAIRYSGGRTYYADSVKGRFTISRDNAKNTVYLQMNSLKPEDTAVYYCAATTYYGGLYTREFDYWGQGTQVTVSS	low polyreactivity
QVQLVESGGGLVQAGGSLRLSCAASGSTFYVNAMGWYRQAPGKERYADSVKGRFTISRDNAKNTVYLQMNSLKPEDTAVYYCAAKVPEPPSLDESDYWGQGTQVTVSS	low polyreactivity
QVQLVESGGGLVQAGGSLRLSCAASGSTFYVNDMGWYRQAPGKERELVATISSGSSTYYADSVKGRFTISRDNAKNTVYLQMNSLKPEDTAVYYCAADGVAEEGFDARYDYWGQGTQVTVSS	low polyreactivity
QVQLVESGGGLVQAGGSLRLSCAASGSTFYVNTLGWYRQAPGKERELVAAISGSGTSTYYADSVKGRFTISRDNAKNTVYLQMNSLKPEDTAVYYCNKYQLVRTYGSYSYYYWGQGTQVTVSS	high polyreactivity
QVQLVESGGGLVQAGGSLRLSCAASGSTFYVYAMGWYRQAPGKEREFVAAISFSSGSTYYADSVKGRFTISRDNAKNTVYLQMNMMNQEDTAVYDCAARYRYPRYIGYGYGGAFVYWGQGTQVTVSS	high polyreactivity
QVQLVESGGGLVQAGGSLRLSCAASGSTFYVYAMGWYRQAPGKERELVAAIRGGGSTNYADSVKGRFTISRDNAKNTVYLQMNSLKPEDTAVYYCAKLPYTRTYLGSLYDYWGQGTQVTVSS	high polyreactivity

Sequence	polyreactivity (PSR sort gate)
QVQLVESGGGLVQAGGSLRLSCAASGSTFYVYGMGWYRQAPGKERELVATISSSGAITYYADSVKGRFTISRDNAKNTVYLQMNSLKPEDTAVYYCARTGSLLSQVWYTYWGQGTQVTVSS	low polyreactivity
QVQLVESGGGLVQAGGSLRLSCAASGSTFYWNVMGWYRQAPGKERELVAAINRSDGSTYYADSVKGRFTISRDNAKNTVYLQMNSLKPEDTAVYFCNAVTKHPQSVPYAYGYWGQGTQVTVSS	high polyreactivity
QVQLVESGGGLVQAGGSLRLSCAASGSTFYWYAMGWYRHAPGKEREFVADIDWSGGSTYYADSVKGRFTISLDNAKNTVYLQMNSLKPEDTAVYYCAAVGAAGQDNYWGQGTQVTVSS	high polyreactivity
QVQLVESGGGLVQAGGSLRLSCAASGSTFYWYAMGWYRQAPGKERELVAAIDSGGSTNYADSVKGRFTISRDNAKNTVYLQMNSLKPEDTAVYYCATVYYTIWDPTYEYDYWGQGTQVTVSS	low polyreactivity
QVQLVESGGGLVQAGGSLRLSCAASGSTFYWYAMGWYRQAPGKERELVAAISSGGSTYYADSVKGRFTISRDNAKNTVYLQMNSLKPEDTAVYYCAAQTPYYLWYDTGDYWGQGTQVTVSS	high polyreactivity
QVQLVESGGGLVQAGGSLRLSCAASGSTFYYGMGWYRQAPGKERELVAAISSRGGTTYYADSVKGRFTISRDNAKNTVYLQMNSLKPEDTAVYYCAAPVPYYVPRRNEGDYWGQGTQVTVSS	low polyreactivity
QVQLVESGGGLVQAGGSLRLSCAASGSTFYYNAMGWYRQAPGKEREFVAAINWRGGSTYYADSVKGRFTISRDNAKNTVYLQMNSLTPEDTAVYYCAAEEPSTYYYVRSGYDYHFWEMYSWGQGTQVTVSS	low polyreactivity
QVQLVESGGGLVQAGGSLRLSCAASGSTFYYNAMGWYRQAPGKERELVAAITFTGGSTYADSVKGRFTISRDNAKNTVYLQMNSLKPEDTAVYYCAATIQGHDYLGTGYDYWGQGTQVTVSS	low polyreactivity
QVQLVESGGGLVQAGGSLRLSCAASGSTFYYNGMGWYRQAPGKERELVAAITWTGDSTYYADSVKGRFTISRDNAKNTVYLQMNCLKPEDTAVYYCAAYYRKTGYDYWGQGTQVTVSS	high polyreactivity
QVQLVESGGGLVQAGGSLRLSCAASGSTFYYNTMGWYRQAPGKERELVAAISSSGGTTYYADSVKGRFTISRDNAKNTVYLQMNSLKPEDTAVYYCNVATIWYSYARGYGYWGQGTQVTVSS	high polyreactivity
QVQLVESGGGLVQAGGSLRLSCAASGSTFYYNTMGWYRQAPGKERELVAAISWRGGSTYYADSVKGRYTISRDNAKNTVYLQMNSLKPEDTAVYYCAALTYYGSDYWGQGTQVTVSS	high polyreactivity
QVQLVESGGGLVQAGGSLRLSCAASGSTFYYNVMGSYRQAPGKERELVAAITLSGGSTYADSVKGRFTISRDNAKKTVYLQINSLKPEDTAVYYCAKKGRYGRWGYKFDYWGQGTQVTVSS	low polyreactivity
QVQLVESGGGLVQAGGSLRLSCAASGSTFYYYAMGCYRQAPGKERELVAAINSSGGNTYYADSVKGRFTISRDNAKNTVYLQMNCLKPEDTAVYYCATEYYWLQDYDYWGQGTQVTVSS	low polyreactivity
QVQLVESGGGLVQAGGSLRLSCAASGSTFYYYAMGGYRQAPGKERELVAAINDAGGTNYADSVKGRFTISRDNAKNTVYLQMNSLKPEDTAVYYCAADGRIYLTYHEMEYWGQVTQVTVSS	low polyreactivity
QVQLVESGGGLVQAGGSLRLSCAASGSTFYYYAMGWYRQAPGKEREFVAAISSSTGSTYYADSVKGRFTISRDNAKNTVYLQMNSLKPEDTAVYYCNALTWYTSQDYDYWGQGTQVTVSS	high polyreactivity
QVQLVESGGGLVQAGGSLRLSCAASGSTFYYYAMGWYRQAPGKERELVAAIDRDDRTNYADSVKGRFTISRDNAKNTVYLQMNSLKPEDTAVYNSAADSSERRLLDFDYWGQGTQVTVSS	low polyreactivity
